The values that follow come from the RNAGym collection of RNA variant scans (doi:10.7554/elife.80360).

First the molecules themselves.
B1: HDV Ribozyme (parent)
chain: GGCCGGCAUGGUCCCAGCCUCCUCGCUGGCGCCGGCUGGGCAACAUUCCGAGGGGACCGUCCCCUCGGUAAUGGCGAAUGGGACCCA

Variants of B1 are the subject of the data set. In words: self-cleavage, relative activity (ratio to wild type); higher = more cleavage; co-transcriptional.
For C26A A70C, the self-cleavage is 1.01.

With C14U G50U, the self-cleavage was determined as 1.09.

As for C49U G67C, the self-cleavage was determined as 1.1.

In the case of U27G U72A, the self-cleavage stood at 0.361.

For the variant C66A C75A, the self-cleavage stood at 0.248.

As for G10A U72C, the self-cleavage turned out to be 0.175.

With G74A A77G, the self-cleavage came to 0.332.

As to G35U G55C, the self-cleavage turned out to be 0.409.

In the case of C24A A56U, the self-cleavage was determined as 0.872.

Regarding G2A C26A, the self-cleavage was 0.216.

For the variant A43G G82A, the self-cleavage came to 0.138.

Turning to C14U U37C, the self-cleavage stood at 1.32.

For G2A U69A, the self-cleavage turned out to be 0.22.

As for C24U A87C, the self-cleavage came out at 0.739.

Regarding U9A U46G, the self-cleavage was found to be 1.08.

Regarding G55C A77C, the self-cleavage was determined as 0.495.

For G50C U72C, the self-cleavage was 0.494.

Take C15A C30U: the self-cleavage amounted to 0.104.

As for G29C C85U, the self-cleavage came to 0.108.

In the case of G10A C41A, the self-cleavage was 0.604.

For the variant U37A G39U, the self-cleavage was 0.122.

In the case of G31U U69A, the self-cleavage is 0.511.

Consider C18U U72C, for which the self-cleavage is 0.193.

As to U46C G73U, the self-cleavage was found to be 0.151.

As for G81U G82C, the self-cleavage was 0.297.

For the variant U65G G76U, the self-cleavage was 0.966.

With G28C G68A, the self-cleavage came out at 0.0475.

As to U9A G53C, the self-cleavage is 0.974.

On to C7U U9G, for which the self-cleavage is 0.997.

As for C18G C57A, the self-cleavage came to 0.0536.

Regarding G29C A77U, the self-cleavage worked out at 0.0369.

A77U U79G: the self-cleavage came to 0.161.

Regarding C48U G52U, the self-cleavage is 0.577.

For the variant C30U G81A, the self-cleavage came to 0.155.

As to A16U G53U, the self-cleavage came out at 0.985.

In the case of U46G A87U, the self-cleavage came out at 0.67.

As for A42G A71C, the self-cleavage is 0.151.

As for G67A G68C, the self-cleavage turned out to be 0.707.

As for G31C A71C, the self-cleavage worked out at 0.0475.

For the variant G31C A71U, the self-cleavage came out at 0.172.

Consider G29U G73U, for which the self-cleavage was 0.095.

C24A G53C: the self-cleavage came to 0.785.

Regarding G28C C58A, the self-cleavage turned out to be 0.166.

As for U12C C13G, the self-cleavage was 0.

Take G40C C44U: the self-cleavage stood at 0.0627.

Regarding A42C C58U, the self-cleavage is 0.322.

Consider C18A C32G, for which the self-cleavage is 0.0875.

As to U65A U79G, the self-cleavage worked out at 0.492.

As to U47G C57U, the self-cleavage stood at 0.985.

Consider C30A U47C, for which the self-cleavage was determined as 0.314.

On to U47G C85G, for which the self-cleavage came out at 1.18.

C14G C66G: the self-cleavage stood at 0.391.

In the case of G34A G54A, the self-cleavage was 0.16.

In the case of U46C G55U, the self-cleavage worked out at 0.831.

With U12G C41A, the self-cleavage was 1.06.

Take C15A G80C: the self-cleavage came out at 0.222.

On to G11A C66G, for which the self-cleavage was found to be 0.424.

Turning to U46A A78C, the self-cleavage was found to be 0.131.

Regarding A56G A87U, the self-cleavage came out at 0.897.

With G38U G76A, the self-cleavage was found to be 0.145.

Consider G29C U37G, for which the self-cleavage came to 0.128.

In the case of C48A A71U, the self-cleavage was 0.867.

In the case of G11A C64A, the self-cleavage was determined as 0.475.

For G76C U79A, the self-cleavage was 0.649.

For the variant G29A A71G, the self-cleavage amounted to 0.032.

As for U46G C75G, the self-cleavage amounted to 0.0639.

For C4G A78U, the self-cleavage was 0.116.

Consider G1A C44G, for which the self-cleavage turned out to be 0.138.

With G11C C30A, the self-cleavage turned out to be 0.0804.

For the variant G67U G73C, the self-cleavage amounted to 0.437.

Take C57A G82U: the self-cleavage was found to be 0.585.

As to G38A G52C, the self-cleavage is 0.0692.

On to U12A G28C, for which the self-cleavage is 0.

On to U47A G50U, for which the self-cleavage amounted to 1.18.

In the case of C62A G68U, the self-cleavage is 0.939.

Regarding C26G U69C, the self-cleavage came out at 1.26.

In the case of C24A A71U, the self-cleavage was 0.731.

For the variant C49U G52U, the self-cleavage worked out at 0.687.

Regarding A42G G81U, the self-cleavage came to 0.0346.

As to A8U G55C, the self-cleavage is 1.04.

Turning to G54C U72G, the self-cleavage worked out at 0.431.

Turning to C61G G67C, the self-cleavage was determined as 0.945.

As to A8G G25U, the self-cleavage stood at 0.35.

For the variant C75A G76A, the self-cleavage was determined as 0.166.

For G38A G50C, the self-cleavage is 0.0831.

Consider C75U G81A, for which the self-cleavage worked out at 0.166.

Take G2A C49U: the self-cleavage was found to be 0.237.

In the case of C3U A56C, the self-cleavage amounted to 0.675.

Consider G2A U9A, for which the self-cleavage amounted to 0.0773.

U27A A77G: the self-cleavage turned out to be 1.15.

G39A A77C: the self-cleavage turned out to be 0.108.

Take A51U G53A: the self-cleavage amounted to 0.927.

Regarding C7A G11U, the self-cleavage turned out to be 0.095.

As to U47A A56G, the self-cleavage turned out to be 0.965.

Turning to C44U A45U, the self-cleavage was determined as 0.787.

Consider A70C G82U, for which the self-cleavage was 0.166.

C4A C14A: the self-cleavage was 0.119.

On to U46G C48G, for which the self-cleavage is 0.475.

Turning to A78U G80A, the self-cleavage came to 0.111.

On to U37C G50A, for which the self-cleavage stood at 1.01.

For the variant G31C C75G, the self-cleavage turned out to be 0.0396.

As to A16C G55A, the self-cleavage was 0.554.

Regarding G25C G50U, the self-cleavage was determined as 0.0811.

C22G A45U: the self-cleavage stood at 0.0415.

Take G68A C75G: the self-cleavage was 0.0875.

A70G C84U: the self-cleavage was 0.743.

In the case of C64U C75G, the self-cleavage was determined as 0.106.

G11C C15G: the self-cleavage amounted to 0.131.

Turning to C3G A71U, the self-cleavage worked out at 0.502.

On to C32G G34A, for which the self-cleavage was determined as 0.0875.

With U46G G53A, the self-cleavage was 0.527.

Consider U37C G59A, for which the self-cleavage was 1.1.

Take G40A G68U: the self-cleavage stood at 0.997.

For the variant G38C U60A, the self-cleavage worked out at 0.38.

With C41A U65G, the self-cleavage was 0.95.

As for G74U G81C, the self-cleavage came out at 0.225.

In the case of G82C A83G, the self-cleavage was 0.233.

On to U12G A45U, for which the self-cleavage turned out to be 0.684.

Consider C15A C48G, for which the self-cleavage was 0.475.

As for C58G U69C, the self-cleavage was 1.36.

Turning to A8C A70G, the self-cleavage was 0.782.

A51G C57A: the self-cleavage worked out at 0.877.

On to C15A A42U, for which the self-cleavage came out at 0.269.

Take C15A G54C: the self-cleavage is 0.806.

As to U46G A56G, the self-cleavage turned out to be 0.499.

As for U27C G40C, the self-cleavage is 0.415.

On to U47A C49U, for which the self-cleavage worked out at 0.972.

In the case of G25U C41G, the self-cleavage was 0.119.

U60G C61G: the self-cleavage worked out at 0.872.

In the case of G29U G80C, the self-cleavage was found to be 0.0504.

Turning to C19G G31U, the self-cleavage was determined as 0.0723.

On to C33U G74U, for which the self-cleavage was found to be 0.41.

C7U C44G: the self-cleavage is 0.464.

On to C33U G50C, for which the self-cleavage stood at 0.786.

On to C33U G50A, for which the self-cleavage amounted to 0.774.

Consider C63U C84U, for which the self-cleavage was 0.726.

As to G2A C84A, the self-cleavage is 0.0519.

Turning to G11U C18U, the self-cleavage was determined as 0.0504.

Consider U65G A83U, for which the self-cleavage is 0.571.

Turning to C62U G76C, the self-cleavage is 0.941.

As to G39U C49A, the self-cleavage was 0.604.

As to U65C U72A, the self-cleavage amounted to 0.665.

Turning to C57U C75U, the self-cleavage worked out at 0.188.

Take C21G A78U: the self-cleavage was found to be 0.196.

Consider U46A C75U, for which the self-cleavage turned out to be 0.0665.

With U69A U79A, the self-cleavage stood at 0.665.

For the variant G25U A42G, the self-cleavage is 0.119.

For G38C G81C, the self-cleavage came out at 0.0354.

In the case of C18A G31C, the self-cleavage was found to be 0.163.

In the case of C21U G53U, the self-cleavage was determined as 0.234.

For the variant G5A C62G, the self-cleavage came out at 0.0594.

On to C3U C36A, for which the self-cleavage amounted to 0.132.

For the variant G50A G81U, the self-cleavage is 0.281.

Regarding G11C U72C, the self-cleavage amounted to 0.119.

G17C G74A: the self-cleavage worked out at 0.089.

In the case of C22A U46G, the self-cleavage worked out at 0.172.

With G38U C61A, the self-cleavage worked out at 0.248.

Regarding C21G U69G, the self-cleavage was 0.

Regarding G68U U72C, the self-cleavage was determined as 0.237.

C26A U46C: the self-cleavage worked out at 0.745.

As for C19A C84G, the self-cleavage is 0.196.

Regarding G17U U20C, the self-cleavage is 0.0573.

In the case of C21A U69A, the self-cleavage was found to be 0.175.

On to C7U A8G, for which the self-cleavage turned out to be 0.582.

On to G6C G53C, for which the self-cleavage is 0.32.

Consider C19A G31C, for which the self-cleavage stood at 0.141.

Take C19A U37C: the self-cleavage is 0.0845.
